Measured values from paper PMC7117912.

Assays:
[1] = biological target: H2-D^b (mouse MHC I heavy chain ectodomain) refolded with human β2-microglobulin (mouse | human); assay: SEC
[2] = biological target: H2-D^b (mouse MHC I heavy chain ectodomain) refolded with human β2-microglobulin (mouse | human); assay: fluorescence polarisation
[3] = biological target: HLA-A*02:01 (human MHC I heavy chain ectodomain, amino acids 1-278) refolded with human β2-microglobulin (human)
[4] = biological target: HLA-A*02:01 (human MHC I heavy chain ectodomain, amino acids 1-278) refolded with human β2-microglobulin (human); assay: fluorescence polarisation

Substance | reduction of the amount of complex against TAPBPR^wt (SEC peak area) [1] | percent of fluorescent peptide released at 1 µM TAPBPR [2] | dissociation rate constant of fluorescent peptide FLPSDC*FPSF from HLA-A*02:01 (300 nM) with 1 µM TAPBPR and 1000-fold excess of competitor peptide (uncatalyzed 1.90 × 10^-3 s^-1) [3] | percent of total MHC I-associated peptide dissociated at saturation (3 µM TAPBPR) [2] | percent of total MHC I-associated peptide dissociated at saturation (3 µM TAPBPR) [4] | dissociation rate constant of fluorescent peptide FLPSDC*FPSF from HLA-A*02:01 (300 nM) with 1 µM TAPBPR and 1000-fold excess of competitor peptide [3]
TAPBPR^Tsn-SL (human TAPBPR lumenal domain with the scoop loop replaced by the corresponding shorter loop of tapasin) (from UniProt Q9BX59 33-401) (domain or fragment) | 40% | 12% | 0.0263 s⁻¹ |  |  | 
TAPBPR^wt (wildtype human TAP-binding protein-related, ER-lumenal domain) (from UniProt Q9BX59 33-401) (domain or fragment) |  | 60% |  | 70% | 80% | 0.0158 s⁻¹
TAPBPR^ΔSL (human TAPBPR lumenal domain with the scoop loop replaced by three glycine residues) (from UniProt Q9BX59 33-401) (domain or fragment) | 90% |  |  |  |  | 0.00852 s⁻¹
